Assay results published in US20230295276A1.

Legend:
[1] = molecular target: lysate of porcine pseudorabies virus; experiment: ELISA Test 1, coated viral lysate, antibody 1:4000, Group 2
[2] = molecular target: lysate of porcine coronavirus; experiment: as above
[3] = molecular target: lysate of porcine pseudorabies virus; experiment: ELISA Test 1, coated viral lysate, antibody 1:4000, Group 1
[4] = molecular target: lysate of porcine coronavirus; experiment: as above
[5] = molecular target: lysate of porcine coronavirus; experiment: ELISA Test 2, coated viral lysate, antibody 1:4000, secondary antibody 1:2000

B1: anti-PRRSV antibody 572 (antibody, V domains shown)
VH: EVQLQQSGPELVKPGASVKISCKASGFSFTGYYMHWVKQSHVKSLEWIGRIYPYTDSTIYNQNFKDKAGLTVDKSSSTAYMELHSLTSEDSAVYYCARDNGYADYAMDYWGQGTSVTVSS
VL: DIVMTQSPSSLSAFLGDSITITCHASQNIHVWLSWYQQKPGNIPKLLIYKASNLHTGVPSRFSGSGSGTGFTLTISSLQPEDIGTYYCQQGQSYPLTFGAGTKLELK
OD450 [1]: 0.1 OD450
OD450 [2]: 0.312 OD450
OD450 [3]: 0.091 OD450
OD450 [4]: 0.322 OD450
OD450 [5]: 0.782 OD450
